# Reference: patent US20140072613A1 (published 2014)
# T1: Flt1(h) (human, UniProt P17948 781-1338, limits assumed)
# T1 sequence (looked up): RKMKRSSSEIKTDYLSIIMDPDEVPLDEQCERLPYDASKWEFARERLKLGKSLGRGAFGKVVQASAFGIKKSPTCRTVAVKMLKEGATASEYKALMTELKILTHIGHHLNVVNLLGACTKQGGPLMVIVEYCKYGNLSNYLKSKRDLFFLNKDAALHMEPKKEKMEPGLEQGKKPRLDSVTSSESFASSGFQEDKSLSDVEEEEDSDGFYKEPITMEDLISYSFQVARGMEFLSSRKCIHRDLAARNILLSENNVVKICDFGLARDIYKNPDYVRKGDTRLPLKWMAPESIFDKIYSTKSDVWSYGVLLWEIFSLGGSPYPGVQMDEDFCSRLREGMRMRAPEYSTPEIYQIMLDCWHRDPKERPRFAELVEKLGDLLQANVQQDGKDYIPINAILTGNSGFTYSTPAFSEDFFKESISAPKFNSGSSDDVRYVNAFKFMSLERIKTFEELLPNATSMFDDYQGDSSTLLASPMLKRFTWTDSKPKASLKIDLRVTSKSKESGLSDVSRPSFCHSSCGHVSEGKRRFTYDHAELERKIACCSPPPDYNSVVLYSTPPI
# T2: PKCι(h) (human, UniProt P41743 1-596)
# T2 sequence (looked up): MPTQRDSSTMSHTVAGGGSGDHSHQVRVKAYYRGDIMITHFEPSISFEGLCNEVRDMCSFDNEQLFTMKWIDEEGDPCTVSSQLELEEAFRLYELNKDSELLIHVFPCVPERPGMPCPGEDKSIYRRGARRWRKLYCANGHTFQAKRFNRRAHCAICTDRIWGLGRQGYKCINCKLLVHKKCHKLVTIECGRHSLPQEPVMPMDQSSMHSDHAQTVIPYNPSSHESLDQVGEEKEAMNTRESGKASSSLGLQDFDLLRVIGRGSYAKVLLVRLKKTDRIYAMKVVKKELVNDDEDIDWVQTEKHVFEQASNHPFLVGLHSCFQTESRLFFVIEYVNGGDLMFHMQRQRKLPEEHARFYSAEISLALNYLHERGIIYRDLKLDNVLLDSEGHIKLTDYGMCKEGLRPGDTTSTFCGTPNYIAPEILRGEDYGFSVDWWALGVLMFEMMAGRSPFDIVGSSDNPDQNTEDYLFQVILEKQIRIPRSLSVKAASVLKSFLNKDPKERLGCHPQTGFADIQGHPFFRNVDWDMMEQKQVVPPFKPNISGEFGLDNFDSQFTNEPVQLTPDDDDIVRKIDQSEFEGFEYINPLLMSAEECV
# T3: Haspin(h) (human, UniProt Q8TF76 471-798, limits assumed)
# T3 sequence (looked up): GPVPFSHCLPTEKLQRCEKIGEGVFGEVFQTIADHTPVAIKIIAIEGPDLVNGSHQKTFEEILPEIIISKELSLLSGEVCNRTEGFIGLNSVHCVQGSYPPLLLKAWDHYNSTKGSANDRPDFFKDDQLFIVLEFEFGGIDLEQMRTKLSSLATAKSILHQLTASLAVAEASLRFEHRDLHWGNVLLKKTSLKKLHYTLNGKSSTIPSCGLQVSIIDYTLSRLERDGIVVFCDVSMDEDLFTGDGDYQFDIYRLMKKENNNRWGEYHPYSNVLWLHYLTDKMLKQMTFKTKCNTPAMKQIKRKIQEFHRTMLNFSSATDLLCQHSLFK
# T4: DMPK(h) (human, UniProt Q09013 1-629, limits assumed)
# T4 sequence (looked up): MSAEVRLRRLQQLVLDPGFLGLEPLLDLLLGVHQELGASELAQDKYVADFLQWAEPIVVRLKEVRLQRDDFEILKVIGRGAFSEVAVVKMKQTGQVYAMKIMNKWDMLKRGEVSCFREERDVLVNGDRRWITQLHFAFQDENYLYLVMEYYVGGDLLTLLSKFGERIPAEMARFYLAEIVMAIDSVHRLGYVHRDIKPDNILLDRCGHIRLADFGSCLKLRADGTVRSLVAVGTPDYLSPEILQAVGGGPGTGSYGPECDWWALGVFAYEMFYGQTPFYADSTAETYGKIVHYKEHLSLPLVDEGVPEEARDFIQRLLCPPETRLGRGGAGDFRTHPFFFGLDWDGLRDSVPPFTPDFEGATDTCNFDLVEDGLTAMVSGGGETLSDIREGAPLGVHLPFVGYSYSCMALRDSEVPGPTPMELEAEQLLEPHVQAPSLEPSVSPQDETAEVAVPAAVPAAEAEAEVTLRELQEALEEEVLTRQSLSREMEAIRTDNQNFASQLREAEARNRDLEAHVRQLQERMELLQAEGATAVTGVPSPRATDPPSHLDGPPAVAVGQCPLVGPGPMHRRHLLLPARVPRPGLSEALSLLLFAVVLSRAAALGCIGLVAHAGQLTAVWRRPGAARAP
# T5: Ron(h) (human, UniProt Q04912 983-1400, limits assumed)
# T5 sequence (looked up): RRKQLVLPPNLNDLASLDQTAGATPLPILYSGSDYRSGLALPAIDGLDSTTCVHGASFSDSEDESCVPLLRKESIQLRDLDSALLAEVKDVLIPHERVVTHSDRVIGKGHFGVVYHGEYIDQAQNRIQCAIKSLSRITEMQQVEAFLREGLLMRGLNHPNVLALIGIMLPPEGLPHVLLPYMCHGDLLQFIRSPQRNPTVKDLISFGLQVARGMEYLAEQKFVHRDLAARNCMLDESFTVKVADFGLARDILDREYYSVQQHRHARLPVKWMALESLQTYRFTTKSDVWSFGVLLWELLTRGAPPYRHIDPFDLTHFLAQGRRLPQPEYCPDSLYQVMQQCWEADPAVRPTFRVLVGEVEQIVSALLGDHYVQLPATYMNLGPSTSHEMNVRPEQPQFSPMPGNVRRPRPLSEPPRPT
# B1: MMI-0400 (peptide)
# peptide: KAFAKLAARLYRKALARQLGVAA
# B2: MMI-0300 (peptide)
# peptide: FAKLAARLYRKALARQLGVAA
# Key:
# Assay in all cases: cell-based or functional assay
# Flt1(h) = biological target: T1, Flt1(h)
# PKCι(h) = biological target: T2, PKCι(h)
# SAPK2a(h) = SAPK2a(h) (human, UniProt Q16539 1-360)
# ASK1(h) = ASK1(h) (human, UniProt Q99683 649-946, limits assumed)
# MRCKα(h) = MRCKα(h) (human, UniProt Q5VT25 1-473, limits assumed)
# Haspin(h) = biological target: T3, Haspin(h)
# mTOR(h) = mTOR(h) (human, UniProt P42345 1362-2549)
# DMPK(h) = biological target: T4, DMPK(h)
# Met(Y1248C)(h) = Met(Y1248C)(h) (human, UniProt P08581-2 974-1408, limits assumed)
# Ron(h) = biological target: T5, Ron(h)
# Sequence of MRCKα(h) (Q5VT25 1-473 limits assumed): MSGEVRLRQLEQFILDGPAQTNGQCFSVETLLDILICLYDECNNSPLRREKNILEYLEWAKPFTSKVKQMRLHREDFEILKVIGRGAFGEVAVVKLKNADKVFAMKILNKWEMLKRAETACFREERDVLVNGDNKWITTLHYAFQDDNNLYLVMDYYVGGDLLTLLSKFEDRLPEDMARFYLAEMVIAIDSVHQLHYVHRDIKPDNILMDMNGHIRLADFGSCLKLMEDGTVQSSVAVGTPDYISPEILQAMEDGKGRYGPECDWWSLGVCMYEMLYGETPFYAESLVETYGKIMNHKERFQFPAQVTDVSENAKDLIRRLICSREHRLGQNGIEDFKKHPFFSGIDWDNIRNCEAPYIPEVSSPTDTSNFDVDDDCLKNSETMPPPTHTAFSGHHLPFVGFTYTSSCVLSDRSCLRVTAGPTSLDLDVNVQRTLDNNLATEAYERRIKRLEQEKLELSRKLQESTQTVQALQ
# Sequence of ASK1(h) (Q99683 649-946 limits assumed): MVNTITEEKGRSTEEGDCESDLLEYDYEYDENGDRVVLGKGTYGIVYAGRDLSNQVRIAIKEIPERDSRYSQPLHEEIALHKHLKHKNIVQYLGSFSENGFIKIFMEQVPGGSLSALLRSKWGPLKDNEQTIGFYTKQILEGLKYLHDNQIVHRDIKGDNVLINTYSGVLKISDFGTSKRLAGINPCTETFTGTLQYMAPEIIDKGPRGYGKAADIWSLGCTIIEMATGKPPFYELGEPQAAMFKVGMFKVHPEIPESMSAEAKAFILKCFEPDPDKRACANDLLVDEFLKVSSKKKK
# Sequence of mTOR(h) (P42345 1362-2549 limits assumed): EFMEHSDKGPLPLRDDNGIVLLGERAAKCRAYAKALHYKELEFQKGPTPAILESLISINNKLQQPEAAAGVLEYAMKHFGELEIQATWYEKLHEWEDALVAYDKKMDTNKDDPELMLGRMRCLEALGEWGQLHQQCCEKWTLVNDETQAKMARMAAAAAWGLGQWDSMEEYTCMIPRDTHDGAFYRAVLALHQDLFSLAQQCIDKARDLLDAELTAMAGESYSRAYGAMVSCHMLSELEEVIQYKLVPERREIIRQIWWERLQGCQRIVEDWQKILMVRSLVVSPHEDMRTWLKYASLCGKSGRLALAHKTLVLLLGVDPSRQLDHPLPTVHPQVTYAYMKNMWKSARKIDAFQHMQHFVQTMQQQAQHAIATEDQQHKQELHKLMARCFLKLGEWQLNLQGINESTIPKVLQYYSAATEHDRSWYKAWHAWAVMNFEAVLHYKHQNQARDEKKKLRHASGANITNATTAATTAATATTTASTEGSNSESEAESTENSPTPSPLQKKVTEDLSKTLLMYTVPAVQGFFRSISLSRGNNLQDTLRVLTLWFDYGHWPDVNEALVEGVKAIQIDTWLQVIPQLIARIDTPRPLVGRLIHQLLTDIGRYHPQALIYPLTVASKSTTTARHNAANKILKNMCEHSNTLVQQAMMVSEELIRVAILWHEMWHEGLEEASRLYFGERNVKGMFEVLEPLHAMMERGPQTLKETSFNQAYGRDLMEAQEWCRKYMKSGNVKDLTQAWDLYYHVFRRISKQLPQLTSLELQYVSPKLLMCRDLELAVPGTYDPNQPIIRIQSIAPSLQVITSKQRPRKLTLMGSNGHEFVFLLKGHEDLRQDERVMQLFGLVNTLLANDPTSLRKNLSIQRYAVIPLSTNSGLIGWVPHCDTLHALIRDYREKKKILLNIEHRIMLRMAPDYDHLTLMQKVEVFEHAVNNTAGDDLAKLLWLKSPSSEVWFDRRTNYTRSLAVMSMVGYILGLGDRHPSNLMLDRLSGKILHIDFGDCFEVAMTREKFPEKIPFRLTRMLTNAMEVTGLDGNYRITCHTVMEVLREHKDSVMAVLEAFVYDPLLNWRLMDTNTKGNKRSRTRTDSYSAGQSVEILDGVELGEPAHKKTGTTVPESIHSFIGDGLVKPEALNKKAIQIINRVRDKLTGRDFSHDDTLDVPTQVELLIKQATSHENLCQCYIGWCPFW
# Sequence of SAPK2a(h) (Q16539 whole entry): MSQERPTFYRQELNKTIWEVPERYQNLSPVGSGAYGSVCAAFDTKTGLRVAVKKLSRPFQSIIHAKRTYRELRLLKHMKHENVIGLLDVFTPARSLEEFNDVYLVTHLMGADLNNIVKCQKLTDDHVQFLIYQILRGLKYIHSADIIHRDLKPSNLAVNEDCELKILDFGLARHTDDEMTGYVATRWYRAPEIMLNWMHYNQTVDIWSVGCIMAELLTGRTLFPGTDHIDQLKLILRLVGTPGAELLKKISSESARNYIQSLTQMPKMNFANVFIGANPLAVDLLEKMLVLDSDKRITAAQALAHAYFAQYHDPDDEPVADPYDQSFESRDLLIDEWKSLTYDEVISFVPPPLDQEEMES
Binder,"% activity, 100 µM (Flt1(h))","% activity, 100 µM (PKCι(h))","% activity, 100 µM (SAPK2a(h))","% activity, 100 µM (ASK1(h))","% activity, 100 µM (MRCKα(h))","% activity, 100 µM (Haspin(h))","% activity, 100 µM (mTOR(h))","% activity, 100 µM (DMPK(h))","% activity, 100 µM (Met(Y1248C)(h))","% activity, 100 µM (Ron(h))"
B1,48%,46%,85%,69%,97%,36%,93%,54%,36%,79%
B2,69%,68%,90%,80%,104%,48%,91%,59%,84%,93%
